Measured values reported in patent publication EP4538294A1 (Shandong Simcere Biopharmaceutical Co., Ltd., dated 2025).

T1: human BCMA on Flp-inCHO-human BCMA cells (human, UniProt Q02223 1-184)
T1 construct: whole, on cells
T1 sequence (looked up): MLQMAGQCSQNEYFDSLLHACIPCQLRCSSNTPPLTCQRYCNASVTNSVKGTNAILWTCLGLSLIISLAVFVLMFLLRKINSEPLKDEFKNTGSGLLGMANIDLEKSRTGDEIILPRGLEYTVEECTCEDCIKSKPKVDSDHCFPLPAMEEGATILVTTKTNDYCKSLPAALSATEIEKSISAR


Experiments:
[1] = molecular target: T2, human GPRC5D on CHOK1-human GPRC5D cells (human, UniProt Q9NZD1 1-345); experiment: FACS, CHOK1-human GPRC5D cells
T2 construct: whole, on cells
T2 sequence (Q9NZD1 whole entry): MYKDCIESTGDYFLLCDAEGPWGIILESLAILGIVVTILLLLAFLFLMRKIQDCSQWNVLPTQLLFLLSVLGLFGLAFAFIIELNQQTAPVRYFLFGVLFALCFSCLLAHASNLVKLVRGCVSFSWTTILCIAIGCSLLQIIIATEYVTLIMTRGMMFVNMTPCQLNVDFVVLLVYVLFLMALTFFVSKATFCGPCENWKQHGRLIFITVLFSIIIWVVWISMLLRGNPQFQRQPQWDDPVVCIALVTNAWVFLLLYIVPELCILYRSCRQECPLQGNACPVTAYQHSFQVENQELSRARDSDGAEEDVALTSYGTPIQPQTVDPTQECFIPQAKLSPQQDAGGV

[2] = molecular target: T1, human BCMA on Flp-inCHO-human BCMA cells; experiment: FACS, Flp-inCHO-human BCMA cells
[3] = molecular target: T3, monkey CD3 on activated monkey PBMC (monkey); experiment: FACS, activated monkey PBMC
T3 construct: whole, on cells
T3 sequence (Q95LI5 22-198): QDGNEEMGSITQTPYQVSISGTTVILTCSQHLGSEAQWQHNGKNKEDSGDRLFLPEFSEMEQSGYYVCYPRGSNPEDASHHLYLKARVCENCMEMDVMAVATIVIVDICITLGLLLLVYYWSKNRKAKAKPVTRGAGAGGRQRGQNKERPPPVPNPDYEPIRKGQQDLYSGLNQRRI

| Binder | EC50 [1] | EC50 [2] | Maximum mean fluorescence intensity [3] |
| --- | --- | --- | --- |
| Tri-17 (trispecific antibody, V domains shown) VHH: EVQLVESGGGLVQPGGSLRLSCSASGFTLDYYMIGWFRQAPGKEREGLSSISPADGSTYYADSVKGRFTISRDSSKNTVYLQMNSLRAEDTAVYYCAAGNEATISWGFGPWEYDYWGQGTMVTVSS VH 1: EVQLVQSGAEVKKPGSSVKVSCKASGYTFTSYGISWVRQAPGQGLEWMGEIYPRSGNTYYNEKFKGRVTLTADKSTSTAYMELSSLRSEDTAVYYCARGRAYGRNYPMDYWGQGTTVTVSS VL 1: EIVLTQSPATLSLSPGERATLSCRASQSIGTSIHWYQQKPGQSPRLLIKYASESISGIPARFSGSGSGTDFTLTISSLEPEDFAVYYCQQSNSWPYTFGGGTKVEIK VH 2: EVQLVESGGGVVQPGRSLRLSCAASGFTFTDYYMSWVRQAPGKGLEWVAMSRNKAKGHTIEYSSSVKGRFTISRDNSKNTLYLQMNSLRAEDTAVYYCARDTYESYDGYFDVWGQGTTVTVSS VL 2: DIVMTQSPDSLAVSLGERATINCKSSQSLFNSRSRKNYLAWYQQKPGQTPKLLIYWASIRESGVPDRFSGSGSGTDFTLTISSLQAEDVAVYYCKQSYYLYTFGQGTKLEIK | 0.69 nM | 2.97 nM | 3280 |
| Tri-56 (trispecific antibody, V domains shown) VHH: EVQLVESGGGLVQPGGSLRLSCAASESISSIHIMAWYRQAPGKQRELVAGIRNDGSTVYVDSVKGRFTISRDNAKNSLYLQMNSLRAEDTAVYYCNADQGFGSYSEWERRSRWGQGTTVTVSS VH 1: EVQLVQSGAEVKKPGSSVKVSCKASGYTFTSYGISWVRQAPGQGLEWMGEIYPRSGNTYYNEKFKGRVTLTADKSTSTAYMELSSLRSEDTAVYYCARGRAYGRNYPMDYWGQGTTVTVSS VL 1: EIVLTQSPATLSLSPGERATLSCRASQSIGTSIHWYQQKPGQSPRLLIKYASESISGIPARFSGSGSGTDFTLTISSLEPEDFAVYYCQQSNSWPYTFGGGTKVEIK VH 2: EVQLVESGGGVVQPGRSLRLSCAASGFTFTDYYMSWVRQAPGKGLEWVAMSRNKAKGHTIEYSSSVKGRFTISRDNSKNTLYLQMNSLRAEDTAVYYCARDTYESYDGYFDVWGQGTTVTVSS VL 2: DIVMTQSPDSLAVSLGERATINCKSSQSLFNSRSRKNYLAWYQQKPGQTPKLLIYWASIRESGVPDRFSGSGSGTDFTLTISSLQAEDVAVYYCKQSYYLYTFGQGTKLEIK | 0.38 nM | 1.3 nM | 575 |
| Tri-63 (trispecific antibody, V domains shown) VHH: EVQLVESGGGLVQPGGSLRLSCAASESISSIHIMAWYRQAPGKQRELVAGIRNDGSTVYVDSVKGRFTISRDNAKNSLYLQMNSLRAEDTAVYYCNADQGFGSYSEWERRSRWGQGTTVTVSS VH 1: EVQLVQSGAEVKKPGSSVKVSCKASGYTFTSYGISWVRQAPGQGLEWMGEIYPRSGNTYYNEKFKGRVTLTADKSTSTAYMELSSLRSEDTAVYYCARGRAYGRNYPMDYWGQGTTVTVSS VL 1: EIVLTQSPATLSLSPGERATLSCRASQSIGTSIHWYQQKPGQSPRLLIKYASESISGIPARFSGSGSGTDFTLTISSLEPEDFAVYYCQQSNSWPYTFGGGTKVEIK VH 2: EVQLVESGGGVVQPGRSLRLSCAASGFTFTDYYMSWVRQAPGKGLEWVAMSRNKAKGHTIEYSSSVKGRFTISRDNSKNTLYLQMNSLRAEDTAVYYCARDTYESYDGYFDVWGQGTTVTVSS VL 2: DIVMTQSPDSLAVSLGERATINCKSSQSLFNSRSRKNYLAWYQQKPGQTPKLLIYWASIRESGVPDRFSGSGSGTDFTLTISSLQAEDVAVYYCKQSYYLYTFGQGTKLEIK | 3.8 nM | 2.1 nM | 434 |
| Tri-64 (trispecific antibody, V domains shown) VHH: EVQLVESGGGLVQPGGSLRLSCAASESISSIHIMAWYRQAPGKQRELVAGIRNDGSTVYVDSVKGRFTISRDNAKNSLYLQMNSLRAEDTAVYYCNADQGFGSYSEWERRSRWGQGTTVTVSS VH 1: EVQLVQSGAEVKKPGSSVKVSCKASGYTFTSYGISWVRQAPGQGLEWMGEIYPRSGNTYYNEKFKGRVTLTADKSTSTAYMELSSLRSEDTAVYYCARGRAYGRNYPMDYWGQGTTVTVSS VL 1: EIVLTQSPATLSLSPGERATLSCRASQSIGTSIHWYQQKPGQSPRLLIKYASESISGIPARFSGSGSGTDFTLTISSLEPEDFAVYYCQQSNSWPYTFGGGTKVEIK VH 2: EVQLVESGGGVVQPGRSLRLSCAASGFTFTDYYMSWVRQAPGKGLEWVAMSRNKAKGHTIEYSSSVKGRFTISRDNSKNTLYLQMNSLRAEDTAVYYCARDTYESYDGYFDVWGQGTTVTVSS VL 2: DIVMTQSPDSLAVSLGERATINCKSSQSLFNSRSRKNYLAWYQQKPGQTPKLLIYWASIRESGVPDRFSGSGSGTDFTLTISSLQAEDVAVYYCKQSYYLYTFGQGTKLEIK | 3.63 nM | 1.08 nM | 348 |
| Tri-65 (trispecific antibody, V domains shown) VHH: EVQLVESGGGLVQPGGSLRLSCAASESISSIHIMAWYRQAPGKQRELVAGIRNDGSTVYVDSVKGRFTISRDNAKNSLYLQMNSLRAEDTAVYYCNADQGFGSYSEWERRSRWGQGTTVTVSS VH 1: EVQLVQSGAEVKKPGASVKVSCKTSGYIFTNFGITWVRQAPGQRLEWMGENYPRRINTYYNEKFKGRVTITADKSASTAYMELSSLRSEDTAVYYCSRKDIFGLSYALDYWGQGTTVTVSS VL 1: DIQMTQSPSSLSASVGDRVTITCKASQNVGTNVAWYQHKPGKSPKALIYSASYQYSGVPSRFSGSGSGTDFTLTISSLQPEDVATYICQQYKNYPYTFGGGTKVEIK VH 2: EVQLVESGGGVVQPGRSLRLSCAASGFTFTDYYMSWVRQAPGKGLEWVAMSRNKAKGHTIEYSSSVKGRFTISRDNSKNTLYLQMNSLRAEDTAVYYCARDTYESYDGYFDVWGQGTTVTVSS VL 2: DIVMTQSPDSLAVSLGERATINCKSSQSLFNSRSRKNYLAWYQQKPGQTPKLLIYWASIRESGVPDRFSGSGSGTDFTLTISSLQAEDVAVYYCKQSYYLYTFGQGTKLEIK | 1.66 nM | 2.54 nM | 377 |
| Tri-66 (trispecific antibody, V domains shown) VHH: EVQLVESGGGLVQPGGSLRLSCAASESISSIHIMAWYRQAPGKQRELVAGIRNDGSTVYVDSVKGRFTISRDNAKNSLYLQMNSLRAEDTAVYYCNADQGFGSYSEWERRSRWGQGTTVTVSS VH 1: EVQLVQSGAEVKKPGASVKVSCKTSGYIFTNFGITWVRQAPGQRLEWMGENYPRRINTYYNEKFKGRVTITADKSASTAYMELSSLRSEDTAVYYCSRKDIFGLSYALDYWGQGTTVTVSS VL 1: DIQMTQSPSSLSASVGDRVTITCKASQNVGTNVAWYQHKPGKSPKALIYSASYQYSGVPSRFSGSGSGTDFTLTISSLQPEDVATYICQQYKNYPYTFGGGTKVEIK VH 2: EVQLVESGGGVVQPGRSLRLSCAASGFTFTDYYMSWVRQAPGKGLEWVAMSRNKAKGHTIEYSSSVKGRFTISRDNSKNTLYLQMNSLRAEDTAVYYCARDTYESYDGYFDVWGQGTTVTVSS VL 2: DIVMTQSPDSLAVSLGERATINCKSSQSLFNSRSRKNYLAWYQQKPGQTPKLLIYWASIRESGVPDRFSGSGSGTDFTLTISSLQAEDVAVYYCKQSYYLYTFGQGTKLEIK | 1.53 nM | 1.09 nM | 345 |
| Tri-38 (trispecific antibody, V domains shown) VHH: EVQLVESGGGLVQPGGSLRLSCSASGFTLDYYMIGWFRQAPGKEREGLSSISPADGSTYYADSVKGRFTISRDSSKNTVYLQMNSLRAEDTAVYYCAAGNEATISWGFGPWEYDYWGQGTMVTVSS VH 1: EVQLVQSGAEVKKPGSSVKVSCKASGYTFTSYGISWVRQAPGQGLEWMGEIYPRSGNTYYNEKFKGRVTLTADKSTSTAYMELSSLRSEDTAVYYCARGRAYGRNYPMDYWGQGTTVTVSS VL 1: EIVLTQSPATLSLSPGERATLSCRASQSIGTSIHWYQQKPGQSPRLLIKYASESISGIPARFSGSGSGTDFTLTISSLEPEDFAVYYCQQSNSWPYTFGGGTKVEIK VH 2: EVQLVESGGGVVQPGRSLRLSCAASGFTFTDYYMSWVRQAPGKGLEWVAMSRNKAKGHTIEYSSSVKGRFTISRDNSKNTLYLQMNSLRAEDTAVYYCARDTYESYDGYFDVWGQGTTVTVSS VL 2: DIVMTQSPDSLAVSLGERATINCKSSQSLFNSRSRKNYLAWYQQKPGQTPKLLIYWASIRESGVPDRFSGSGSGTDFTLTISSLQAEDVAVYYCKQSYYLYTFGQGTKLEIK | 2.06 nM | 4.43 nM | 1440 |
